Columns and labels:
[1] = system: Thioredoxin (Trx) alone, expressed in E. coli from a pET32 vector [thioredoxin: P0AA25]
[2] = system: E. coli-expressed NFκB p50
[3] = system: Trx-IRDBP-1 fusion protein (His6-tagged thioredoxin fusion of the 1503 bp coding region of the cDNA SEQ ID NO: 44)
[4] = system: T1, RPRAATF substrate of glycogen synthase kinase 3β
T1 sequence: RPRAATF

[5] = system: IRDBP-1 expressed from pCR IRDBP-1 in transfected COS 7 cells
Sequence of IRDBP-1 expressed from pCR IRDBP-1 in transfected COS 7 cells (chain, as listed by the source): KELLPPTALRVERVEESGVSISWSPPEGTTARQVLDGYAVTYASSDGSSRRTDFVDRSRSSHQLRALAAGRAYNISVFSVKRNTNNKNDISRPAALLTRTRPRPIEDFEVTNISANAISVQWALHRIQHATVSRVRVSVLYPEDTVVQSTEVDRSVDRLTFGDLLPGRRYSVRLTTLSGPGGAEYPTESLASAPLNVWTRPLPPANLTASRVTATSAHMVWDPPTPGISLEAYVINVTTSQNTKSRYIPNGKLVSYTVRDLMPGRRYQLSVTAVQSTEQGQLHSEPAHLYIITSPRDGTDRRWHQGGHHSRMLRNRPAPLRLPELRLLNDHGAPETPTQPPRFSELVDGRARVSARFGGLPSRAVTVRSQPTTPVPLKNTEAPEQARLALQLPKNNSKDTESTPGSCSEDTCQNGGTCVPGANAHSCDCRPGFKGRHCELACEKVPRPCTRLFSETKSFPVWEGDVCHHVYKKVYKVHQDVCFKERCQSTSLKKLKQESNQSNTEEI

Sequence of Thioredoxin (Trx) alone, expressed in E. coli from a pET32 vector [thioredoxin: P0AA25] (P0AA25 whole entry): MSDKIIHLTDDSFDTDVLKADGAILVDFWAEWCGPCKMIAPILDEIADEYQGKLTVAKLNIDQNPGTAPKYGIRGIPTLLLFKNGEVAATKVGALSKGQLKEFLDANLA
Sequence of Trx-IRDBP-1 fusion protein (His6-tagged thioredoxin fusion of the 1503 bp coding region of the cDNA SEQ ID NO: 44) (chain, as listed by the source): as the sequence (chain, as listed by the source) above

For Akt (endogenous, COS 7 cells), the “in vitro phosphorylation with [γ-32P] ATP, SDS-PAGE” value (shortened to “in vitro phosphorylation … SDS-PAGE”) [1] was “Akt and Erk did not phosphorylate the controls of Trx alone, and the p50 subunit of NFκB”, the “in vitro phosphorylation … SDS-PAGE” value [2] was “Akt and Erk did not phosphorylate the controls of Trx alone, and the p50 subunit of NFκB” and the “in vitro phosphorylation … SDS-PAGE” value [3] was “Akt and Erk Trx-IRDBP-1 were capable of phosphorylating Trx-IRDBP-1”. The “in vitro phosphorylation with [γ-32P] ATP” value [4] was “Akt phosphorylated the RPRAATF substrate of glycogen synthase kinase 3β, used as a positive control”.

For “Erk2 (pUSEamp expression vector, cotransfected)”, the “IRDBP-1-induced IRE transcription” value [5] was “Erk2 decreased IRDBP-1-induced IRE transcription by 45±4% (lane 5 vs. lane 3)”.

Erk (Erk1/2; endogenous, COS 7 cells) was tested, and the “in vitro phosphorylation … SDS-PAGE” value [1] was “Akt and Erk did not phosphorylate the controls of Trx alone, and the p50 subunit of NFκB”, the “in vitro phosphorylation … SDS-PAGE” value [2] was “Akt and Erk did not phosphorylate the controls of Trx alone, and the p50 subunit of NFκB” and the “in vitro phosphorylation … SDS-PAGE” value [3] was “Akt and Erk Trx-IRDBP-1 were capable of phosphorylating Trx-IRDBP-1”.

With “wild-type Akt1 (pUSEamp expression vector, cotransfected)” the “IRDBP-1-induced IRE activity (IRE-mediated transcription)” value [5] was “Wild-type Akt1 expression, like Akt myr, stimulated IRDBP-1-induced IRE activity to the same extent as the addition of insulin (lane 7 vs. lane 4)”.

From patent US20030125296
